Assay [1] addresses DNA polymerase I (Sau) of Staphylococcus aureus (Staphylococcus aureus). Briefly: cell-based or functional assay.
Assay [2] concerns the target Sau-TBD, hybrid DNA polymerase prepared by inserting a thioredoxin binding domain (TBD) of bacteriophage T7 DNA polymerase into DNA polymerase I (Sau) of S. aureus. Briefly: cell-based or functional assay.

The substance “TrxA (thioredoxin of E. coli) (from UniProt P0AA25 2-109)” yielded a Polymerization activities (units/mg protein), +TrxA (units/mg protein) in assay [1] of 3100. For the same substance, in assay [2], the Average amplification length of primers (nt) [1/(1 - PI)], in the presence of TrxA was found to be 74.1 nt; the Micro continuous synthetic capacities (PI), in the presence of TrxA came out at 0.987; the Polymerization activities (units/mg protein), +TrxA (units/mg protein) amounted to 2860; the fold improvement of average amplification length of the primer on addition of TrxA was greater than 20 fold. This substance also registered a fold improvement of polymerization activity on addition of TrxA in assay [2] greater than 2 fold.

Values taken from US20180298357A1.
